Test results from the nanobody polyreactivity screen of Harvey et al. (2022).

Assay: yeast display, Sf9 membrane polyspecificity reagent, FACS + sequencing; frameworks hold sequencing errors
Outline: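 After 36–48 hours of galactose induction, yeast (Saccharomyces cerevisiae BJ5465) displaying a synthetic nanobody library were stained at 4 °C for 1 hour with 10% biotinylated, detergent-solubilized Sf9 membrane reagent. Streptavidin microbeads enriched the stained cells before FACS sorting into low and high (top ~1%) gates on anti-HA and streptavidin fluorescence. Each clone's polyreactivity label reflects its gate of origin.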

QVQLVESGGGLVQAGGSLRLSCAASVSLSGYYAMGWYRTGPGKERELVASIRYTGALTYYADTVKGRFTISRDNAKNTVYLQMNSLKPEDTAGYYCAADVKRDRVWGGDYWGQGTQVTVSS
polyreactivity (PSR sort gate): low polyreactivity

QVQLVESGGGLVQAGGSLRLSCAASVSPFWLNAMGWYRPAPGKEREFVAAITVGGGSTYYADSVKGRFTISRDNAKNTDYLQMNSLKPEDTAVYYCAALYRFWYPGNSYDYWGQGTQVTVSS
polyreactivity (PSR sort gate): high polyreactivity

QVQLVESGGGLVQAGGSLRLSCAASVSTFAVYAMGWYRQAPGKERELVAAISSSGDRTFYADSVKGRFTISRDNAKNTVYLQMNSLKPEDTAVYYCNVPYKYRRAYDGGYDYWGQGTQVTVSS
polyreactivity (PSR sort gate): high polyreactivity

QVQLVESGGGLVQAGGSLRLSCAASVSTFFRYAKRWYRQAPGKERELVAAISKRGGSTSYADSVKGRFTISRDNAKNTVYLQMNSLKPEDTAVYYCATVYWLFARYDYWGQGTQVTVSS
polyreactivity (PSR sort gate): high polyreactivity

QVQLVESGGGLVQAGGSLRLSCAASVSTFQVYGMGWYREAPGKERELVAAISYSGGRTYYADSVKGRFTISRDNAKNTVYLQMNILKPEDTAVYYCNAVLAHDPRLDYWGQGTQVTVSS
polyreactivity (PSR sort gate): high polyreactivity

QVQLVESGGGLVQAGGSLRLSCAASVSTFQYNARGWYRQAPGKEMELVAAITSRGGSTYYADSVKGRFTISRDNAKNTVYLQMNSLKPEDTALYYCAALLSKSGRFDRAKVTAYGYWGQGTQVTVSS
polyreactivity (PSR sort gate): low polyreactivity

QVQLVESGGGLVQAGGSLRLSCAASVSTLSDNAMGWYRQAPGKERELVASISWSGGTYYADSVKGRFTISRDNAKNTVYLQMNSLKPEDTAVYYCAAYIYYNYSRQYWYDYWGQGTQVTVSS
polyreactivity (PSR sort gate): low polyreactivity

QVQLVESGGGLVQAGGSLRLSCAASWYTMGWYRQAPGKERELVAAITGGGSTNYADSVKGRFTISRDNAKNTVYLQMNSLKPEDTAVYYCAKTRVLLNSYSYNIIYDYWGQGTQVTVSS
polyreactivity (PSR sort gate): low polyreactivity

QVQLVESGGGLVQAGGSLRLSCAATGFIFAANAMGWYRQAPGKERELVAAINYRGSSTYYADSVKGRFTISRDNAKNTVYLQMNSLKPEDTAVYYCAARSGAQRGGGYWGQGTQVTVSS
polyreactivity (PSR sort gate): high polyreactivity

QVQLVESGGGLVQAGGSLRLSCAATGFIFERNAMGWYRQAPGKERELVAVISYSGGRTYYADSVKGRFTISRDNANNTVYLQMNSLKPEDTAVYYCAATIVKYGYHYDYWGQGTQVTVSS
polyreactivity (PSR sort gate): high polyreactivity

QVQLVESGGGLVQAGGSLRLSCAATGFTFFRYAMGWYRQARGKERELVAAITYSGSSTYYADSVKGRFTISRDNAKNTGYLQRNSLKPEDTAVYYCNAVQGFYSWVLYYYAYDYWGQGTQVTVSS
polyreactivity (PSR sort gate): high polyreactivity

QVQLVESGGGLVQAGGSLRLSCAATGFTFGSNVMGWYRQAPGKERELVATIRRGGSTNYADSVKGRFTISRDNAKNTVYLQLNSLKPEDTAVYYCATRYREWGQGTQVTVSS
polyreactivity (PSR sort gate): high polyreactivity

QVQLVESGGGLVQAGGSLRLSCAATGFTFRFYAIGWYRQAPGKERELVAAISSRGTTTYYADSVKGRFTISRDNAKNTVYLQMNSLKPEDTAVYYCNKEYTTYGYDLEYDYWGQGTQVTVSS
polyreactivity (PSR sort gate): low polyreactivity

QVQLVESGGGLVQAGGSLRLSCAATGFTFYKNAMGWYRQAAGKDRELVAAITRGGTTNYADSVMGRFTISRDNAKNTVYLQMNSLKEEDTAVYYCAKQGRYLTRYGYWGQGTQVTVSS
polyreactivity (PSR sort gate): high polyreactivity

QVQLVESGGGLVQAGGSLRLSCAATGFTFYVNAMGWYRQAPGKERELVAGITTSDGSTYYADSVKGRFTISRDNAKNTVYLQMNSLKPEDTAVYYCAAAITWYQLYQRSGGDYWGQGTQVTVSS
polyreactivity (PSR sort gate): low polyreactivity

QVQLVESGGGLVQAGGSLRLSCAATGIIFHRYVMGWYRQAPGKERELVAVITQRGGSTYYADSVKGRFTISRDNAKNTVYLQMNSLKQEDTAVYYCAARSQYRDRTGQYGYWGQGSQVTVSS
polyreactivity (PSR sort gate): high polyreactivity

QVQLVESGGGLVQAGGSLRLSCAATGIIFRDYGKGWYRHAPGKQREFVATITYSGGGTYYADSVKGRFTISRDNAKNTVYLQMNSLKPEDTAVYYCAAYPFYYDLAYDYWGQGTQVTVSS
polyreactivity (PSR sort gate): low polyreactivity

QVQLVESGGGLVQAGGSLRLSCAATGIIIDSNAMGWYRQAPGKERELVAAITSGGSTKYADSVKGRFTISRDNAKNTVYLQMNSLKPEDTAVYYCAAGGSYYRDDYWGQGTQVTVSS
polyreactivity (PSR sort gate): low polyreactivity

QVQLVESGGGLVQAGGSLRLSCAATGLIFAYNTMGWYRQAPGKERELVAGITSSGSTYYADSVKGRFTISRDNAKNTVYVQMNSLKPEDTAVYYCAAEWDDGRSWYWYYLVGFEYWGQGTQVTVSS
polyreactivity (PSR sort gate): high polyreactivity

QVQLVESGGGLVQAGGSLRLSCAATGLTFKENVMGWYRQAPGKERELVAAISTGASTYYADSVNGRFTISRDNAKNTVYLQMNSLKPEDTAVYYCAKRVTPWYGYWGQGTQVTVSS
polyreactivity (PSR sort gate): high polyreactivity

QVQLVESGGGLVQAGGSLRLSCAATGRIFPYYAMGWYRQAPGKERALVATISSGGRTNYADSVKGRFTISRDNAKNTVYLQMNSLNPEDTAVYYCAADYRKSRVFYGLYYWGQGTQVTVSS
polyreactivity (PSR sort gate): high polyreactivity

QVQLVESGGGLVQAGGSLRLSCAATGRIFRTTAMGWYRQAPGTVRELVAAITFSGGGTYYADSVKGRFTISRDHAKNTGYLQMNSLKPEETAFYYCYADDSYDLSCFEDDYWGQGTQVTVSS
polyreactivity (PSR sort gate): low polyreactivity

QVQLVESGGGLVQAGGSLRLSCAATGRIFSLYAMGWYRQAPGKERELVASITRSGVRTYYADSVKGRFTISRDNAKNTVYLQMNSLKPEDTAVYYCAAPYLYSQGTYYRSSGMDYWGQGTQVTVSS
polyreactivity (PSR sort gate): low polyreactivity

QVQLVESGGGLVQAGGSLRLSCAATGRIFTINAMGWYRQAPGKERELVAGITKSGGITYYADSVKGRFTISRDNAKNTVYLQMNSLKPEDTAVYYCAAPFNRWRARTGFDYWGQGTQVTVSS
polyreactivity (PSR sort gate): high polyreactivity

QVQLVESGGGLVQAGGSLRLSCAATGRIISFYVMGWYRQAPGKERELVAAISLSGGSTYYADSVKGRFTNSRDNAKNTVFLQMNCLKPEDTAVYYCYAVLYARQRERWARYDYWGQGTQVTVSS
polyreactivity (PSR sort gate): high polyreactivity

QVQLVESGGGLVQAGGSLRLSCAATGRISFRILWDGIDRRLGKKGSWLPLLTNTGSTNYADSVKARFTISRDNAKNTVYLQMNSLKPEDTAVYYCNADPTGGSSYPAYFEYDYWGQGTQGTVSS
polyreactivity (PSR sort gate): low polyreactivity

QVQLVESGGGLVQAGGSLRLSCAATGRTFPAYAMGWYRQAPGKERELVAAITINGGSTYYADSVKGRFTISRDNAKNSVYLQMNSLKPEDTAVYYCAAYYASPRHGFWGQGTQVTVSS
polyreactivity (PSR sort gate): low polyreactivity

QVQLVESGGGLVQAGGSLRLSCAATGRTFSVYTMGWYRQAPGKERELVASISRSGGRTYYADSVKGRFTISRDNAKNTVYLQMNSLKPEDTAVYYCAARWYSASALKYYYWGQGTQVTVSS
polyreactivity (PSR sort gate): high polyreactivity

QVQLVESGGGLVQAGGSLRLSCAATGRTFTGNVMGWYRQAPGKERELVAAISRSGTSTYYADSVKGRFTISRDNAKNTVYLQMNSLKPEDTAVYYCAARRTAGYRSGEYDYWGQGTQVTVSS
polyreactivity (PSR sort gate): high polyreactivity

QVQLVESGGGLVQAGGSLRLSCAATGSIFKWYAMGWYRQEPGKERELVSAISKSGGSTYYADSVKGRFTISRDNAKNTVYLQINSLKPEDTAVYYCNAVYIGSRRRYEYDYWGEGTQVTVSS
polyreactivity (PSR sort gate): high polyreactivity

QVQLVESGGGLVQAGGSLRLSCAATGSIFNKYAMGWYRQAPGTEREFVAAITQGGGRTYYADSVKGRFTISRDNAKNTVYLQMNSLKPEDTAVYYCAKPAYHSPDYDYWGQGTQVTVSS
polyreactivity (PSR sort gate): high polyreactivity

QVQLVESGGGLVQAGGSLRLSCAATGSIFQGNVMGWYRPAPGKERELVAGISSSGGRTYYADSVKGRFTISRDNAKNTVYLQMNSLIPEDTAVYYCNAVPSNRQLDYDYWGQGTLVTVSS
polyreactivity (PSR sort gate): high polyreactivity

QVQLVESGGGLVQAGGSLRLSCAATGSIFSLYAMGWYRQSPGKERELVADITYSGGNTYYADSVKGRFTISRDNAKNTVYLHMNSLKPEDTAVYYCNAYYFDYWYWYDYWGQGTQVTVSS
polyreactivity (PSR sort gate): high polyreactivity

QVQLVESGGGLVQAGGSLRLSCAATGSIFSRYAMGWYRQAPGKERELVAAISWRGGGTYYADSVKGRFTISRDNAKNTVYLQMNSLKPVDTAVYYCAADDTPDDSDYWGQGTQVTVSS
polyreactivity (PSR sort gate): low polyreactivity

QVQLVESGGGLVQAGGSLRLSCAATGSIIPFYAMGWYRQATGKEREFVAAISRTGGNTYYADSVKGLLTISRDNAKNTVYLQMNSLKPEDTAVYFCATKRKWTYLSFDYWGQGTQVTVSS
polyreactivity (PSR sort gate): low polyreactivity

QVQLVESGGGLVQAGGSLRLSCAATGSTFDNYAMGWYRQAHGKERELVADITWSGGSTYYADSVKGRFTISRDNAKNTVYLQMNSLKPEDTAVYYCNTAGYYTKYDYWGQGTQVTVSS
polyreactivity (PSR sort gate): low polyreactivity

QVQLVESGGGLVQAGGSLRLSCAATGSTFDRNAMVWYRLAPGKERELVAAISWRGGRTYYADSVKGRFTISRDNAKNTVYLQMNSLKPEDTAVYYCSAKGPGIRSVEGYDYWGQGTQVTVSS
polyreactivity (PSR sort gate): low polyreactivity

QVQLVESGGGLVQAGGSLRLSCAATGSTFGAYAMGWYRQAPGKERELVAAITRRSGSTYYADSVKGRFTISRDNAKNTVYLQMNSLKPEDTAVYYCAARASTIMGSWGQGTQVTVSS
polyreactivity (PSR sort gate): high polyreactivity

QVQLVESGGGLVQAGGSLRLSCAATGSTFHWYAMGWYRQAPGKATELVATITWSGGSTYYADSVKGRFTISRDNAKNTVYLQMNSLKPEDTAVYYCAAETYILLEYDYWGQGTQVTVSS
polyreactivity (PSR sort gate): high polyreactivity

QVQLVESGGGLVQAGGSLRLSCAATGSTFKWYAMGWYIQAPGKERELVDSISWTGASTYYADSVKGRFTISRDKAKNTVYLQMNSLKPEDTAVYYCAADRTYYALLWTGRSRYDYWGQGTQVTVSS
polyreactivity (PSR sort gate): high polyreactivity

QVQLVESGGGLVQAGGSLRLSCAATGSTFLVNAMGWYRQAPGKERELVAAISRGGSTYADSVKGRFTISRDNAKNTVYLQMYSMNPEDTAVYYCNARRYQSYRYYYWGQGTQVTVSS
polyreactivity (PSR sort gate): high polyreactivity

QVQLVESGGGLVQAGGSLRLSCAATGSTFRNNAMGWSRQAPGKERELVAAISRGGGSTYYADSVKGRFTISRDNAKNTVYLQMNSLKPEVTAVYYCARRPTGIYDYWGQGTQVTLSS
polyreactivity (PSR sort gate): high polyreactivity

QVQLVESGGGLVQAGGSLRLSCAATGSTFRYYAMGWYRQAPGKERELVAAISASGSSTYYADSVKGRFTISRHNAKNTVFLQMYSLKPEDTAVYYCATRQFYVRLGYYSWGQGTQVTVSS
polyreactivity (PSR sort gate): high polyreactivity
